Assay results from patent US20180044385A1 (published 2018).

Biological target: human IgG1 scaffold
Experiment: SPR

B1: A1 (designed binder)
chain: MKGETTTEAVDAATAEKVFKQYANDNGVDGEWTYDDATKTFTVTEKPEVIDASELTPAVTTYKLVINGRTLSGYTTTTAVDAATAEKVFKQYAYVHEVDGEWTYDDATKTFTVTEKPEVIDASELTPAVTTYKLVINGRTLSGETTTKAVDAETAEKAFKQYANDNGVDGVWTYDDATKTFTVTE
Kd: 24 nM

B2: WT (other)
chain: LTPAVTTYKLVINGKTLKGETTTKAVDAATAEKVFKQYANDNGVDGEWTYDDATKTFTVTEKPEVI
Kd: 3000 nM
